Laboratory results reported in publication PMC2588524 (Nucleic Acids Research, 2008).

How the values were obtained:
[1] = molecular target: T1, C-terminal domain of mouse Dnmt3a (residues 608-908) (mouse, UniProt O88508 608-908); test: co-purification
[2] = molecular target: T1, C-terminal domain of mouse Dnmt3a …; test: AUC

T1 sequence (O88508 608-908): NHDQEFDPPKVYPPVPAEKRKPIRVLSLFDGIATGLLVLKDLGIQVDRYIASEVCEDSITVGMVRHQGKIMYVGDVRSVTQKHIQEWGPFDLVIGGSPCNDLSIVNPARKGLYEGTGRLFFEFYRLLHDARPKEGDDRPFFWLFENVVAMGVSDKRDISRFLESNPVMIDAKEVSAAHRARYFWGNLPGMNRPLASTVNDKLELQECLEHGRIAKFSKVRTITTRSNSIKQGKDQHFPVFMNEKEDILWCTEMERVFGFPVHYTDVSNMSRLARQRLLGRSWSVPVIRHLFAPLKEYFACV

stoichiometry N [1]: 1 | stoichiometry N [2]: 1 2:2 (Dnmt3a-C:Dnmt3L-C)
B1: C-terminal domain of mouse Dnmt3L (residues 208-421) (domain or fragment, UniProt Q9CWR8 208-421, looked up)
chain: GPMEIYKTVSAWKRQPVRVLSLFRNIDKVLKSLGFLESGSGSGGGTLKYVEDVTNVVRRDVEKWGPFDLVYGSTQPLGSSCDRCPGWYMFQFHRILQYALPRQESQRPFFWIFMDNLLLTEDDQETTTRFLQTEAVTLQDVRGRDYQNAMRVWSNIPGLKSKHAPLTPKEEEYLQAQVRSRSKLDAPKVDLLVKNCLLPLREYFKYFSQNSLPL
